Experimental data from the supplement of paper PMC9732359.
± gives the uncertainty stated by the source.

Assay: protein stability index of a GFP-peptide fusion (yeast GPS) (PSI 1-4); higher = more stable; sorted into four equal gates, so the index is relative within each strain
Outline: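 Plasmids in a pooled yeast library fused tiled 17-residue yeast protein peptides downstream of GFP and also expressed Cherry. Mid-log cultures grown without leucine were sorted into four equal gates by GFP/Cherry fluorescence ratio. Each gate's plasmids were PCR-amplified and Illumina-sequenced, and reads were matched to strains by barcodes. The protein stability index is derived by multiplying each gate's read frequency by its gate number and summing the results.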

Sequence | protein stability index (doa10∆) | protein stability index (pdr5∆) | protein stability index (san1∆) | protein stability index (ubr1∆)
STTASGTTATGTGLFGQ [YGR119C/NUP57] | 3.18 ± 0.074 | 3.35 ± 0.067 | 3.27 ± 0.068 | 3.43 ± 0.055
STVQTPITASMAAALPN [PGD1] | 1.59 ± 0.074 | 1.55 ± 0.099 | 1.37 ± 0.11 | 1.4 ± 0.05
SVGVIINKMVGNRYLEK [RPL21A] | 3.01 ± 0.14 | 3.35 ± 0.13 | 2.43 ± 0.2 | 3 ± 0.095
SVIVSQFCAFDSSSNTY [SIN4] | 2.48 ± 0.084 | 2.26 ± 0.073 | 2.51 ± 0.12 | 2.19 ± 0.074
SVKDYRPAEETEAQAEP [RPS3] | 2.76 ± 0.065 | 3.07 ± 0.068 | 3.11 ± 0.041 | 2.93 ± 0.043
SVKSVKFPTRKIYMLYS [RPC34] | – | – | – | 3.58 ± 0.25
SVLRDTLVAQNLKQANN [SMC4] | 2.68 ± 0.082 | 2.53 ± 0.06 | 2.48 ± 0.052 | 2.33 ± 0.035
SVNIAFAISMGYLFKVS [ECM29] | 2.21 ± 0.14 | 2.84 ± 0.13 | 2.83 ± 0.093 | 3.22 ± 0.13
SVNPSNKPIKRMLSSIL [SWP82] | 2.95 ± 0.065 | 2.99 ± 0.044 | 2.93 ± 0.045 | 2.99 ± 0.037
SVREINLYMLVTTCVYL [SSN8] | 2.32 ± 0.057 | 1.67 ± 0.047 | 2.33 ± 0.065 | 1.92 ± 0.047
SVRLQVTKILPHLIIQN [IRR1] | 1.65 ± 0.091 | 1.7 ± 0.064 | 1.72 ± 0.094 | 1.7 ± 0.06
SVRRSGALDVEGLCIVA [RRP45] | 2.47 ± 0.15 | 3.06 ± 0.11 | 3 ± 0.11 | 2.83 ± 0.18
SYAGISTDKLVQCHGSF [SIR2] | 2.57 ± 0.12 | 2.76 ± 0.11 | 2.78 ± 0.13 | 2.98 ± 0.092
SYESLKKRKIHNGREGS [MCD1] | 1.7 ± 0.04 | 1.91 ± 0.041 | 1.69 ± 0.062 | 2 ± 0.032
SYEYYNIKHKHTSIRET [SMC2] | 1.61 ± 0.047 | 1.83 ± 0.066 | 1.67 ± 0.11 | 1.87 ± 0.049
SYKMIQLDAYGEKKVGS [SWP82] | 3.27 ± 0.093 | 3.37 ± 0.093 | 3.35 ± 0.075 | 3.02 ± 0.072
TAAANTEKLSNGFSFTK [YOR098C/NUP1] | 2.81 ± 0.079 | 2.48 ± 0.057 | 2.56 ± 0.065 | 2.46 ± 0.044
TAAIDSVVSQIEKGSTF [FAS1] | 3.1 ± 0.097 | 2.95 ± 0.078 | 3.12 ± 0.072 | 2.93 ± 0.057
TAGVGSTPNFGGNSNKS [SIN4] | 3.73 ± 0.2 | 3.31 ± 0.21 | 3.39 ± 0.078 | 3.36 ± 0.061
TAKPAFSFGAKPAEKNN [YJL041W/NSP1] | 3.19 ± 0.11 | 3.35 ± 0.12 | 3.19 ± 0.11 | 3.4 ± 0.15
TALKQYEKELMGDELTR [RPN6] | 3.26 ± 0.13 | 3.54 ± 0.15 | 3.42 ± 0.077 | 3.51 ± 0.12
TAPSSERRVLLSAPLSK [RPL26B] | 1.86 ± 0.041 | 2.4 ± 0.044 | 2.66 ± 0.062 | 2.08 ± 0.044
TATGAASKSGKLTQKLV [CYT1] | 1.64 ± 0.092 | 1.62 ± 0.078 | 2.69 ± 0.11 | 1.83 ± 0.063
TATIINNESSDDMDIDE [PCI8] | 3.1 ± 0.097 | 3.17 ± 0.07 | 3.02 ± 0.095 | 3.31 ± 0.056
TDAYLDQYLWYEADQRK [PRP8] | 3.18 ± 0.12 | 3.21 ± 0.17 | 3.02 ± 0.18 | 3.12 ± 0.081
TDDQGRVIDDNNRRRSR [SIR3] | 3.66 ± 0.12 | 3.05 ± 0.24 | 3.39 ± 0.17 | –
TDDVRLAPELNQAIWKR [RPL31A] | 3.28 ± 0.1 | 3.3 ± 0.077 | 3.18 ± 0.079 | 3.12 ± 0.048

Sequence | protein stability index (doa10∆) | protein stability index (pdr5∆) | protein stability index (san1∆) | protein stability index (ubr1∆)
TDIKDTLTKISMLFKTS [MCD1] | 2.87 ± 0.15 | 2.88 ± 0.27 | 2.37 ± 0.18 | –
TDLEKKHLWDQKSLAAL [RPC17] | 2.86 ± 0.11 | 2.98 ± 0.062 | 2.94 ± 0.081 | 3.02 ± 0.059
TDLESLSSGESNEIKVT [SIR4] | 2.99 ± 0.13 | 2.93 ± 0.11 | 2.69 ± 0.1 | 2.46 ± 0.071
TDNMSGRGLWNPSYPGM [YJL039C/NUP192] | 3.14 ± 0.26 | 3.11 ± 0.18 | – | 2.84 ± 0.26
TDQILQLLKEDSEKRNK [RRP45] | 3.12 ± 0.16 | 3.3 ± 0.29 | 3.52 ± 0.098 | 3.36 ± 0.11
TDRQKKLLGVDMQSSVD [YLR018C/POM34] | 3.2 ± 0.057 | 3.08 ± 0.055 | 3.19 ± 0.043 | 3.15 ± 0.044
TDYARAKNRILASKIKQ [RRI1] | 1.93 ± 0.097 | 2.07 ± 0.072 | 1.94 ± 0.091 | 1.91 ± 0.063
TEDIREGDQAEVIFSFE [YMR129W/POM152] | 3.47 ± 0.087 | 3.39 ± 0.072 | 3.19 ± 0.066 | 3.44 ± 0.071
TEEPDLAIADVETKLET [DSN1] | 3.2 ± 0.12 | 3.35 ± 0.11 | 2.48 ± 0.097 | 3.5 ± 0.14
TEGCIGLSQTEAFGNIK [MCD1] | 2.61 ± 0.058 | 2.61 ± 0.076 | 2.81 ± 0.093 | 2.56 ± 0.072
TEISPMAGSQFENGNIT [RRP45] | 2.6 ± 0.063 | 2.5 ± 0.05 | 2.86 ± 0.058 | 2.71 ± 0.062
TEKQRKKQIAFPQRKYA [RPL35A] | 1.16 ± 0.062 | 1.44 ± 0.096 | 1.13 ± 0.21 | 1.15 ± 0.08
TELASKDNAIYNGFIDI [YCS4] | 1.42 ± 0.072 | 1.68 ± 0.071 | 1.09 ± 0.14 | 1.48 ± 0.05
TELLDEFIAAVNNPQEE [RPN10] | 3.01 ± 0.17 | 3.17 ± 0.14 | 3.08 ± 0.064 | 2.83 ± 0.15
TENEIPNLIEKMVAKGL [BRR2] | 2.85 ± 0.17 | 2.81 ± 0.13 | 2.63 ± 0.093 | 2.78 ± 0.11
TERHIQVGDGLEILIVT [PRE7] | 2.05 ± 0.067 | 1.97 ± 0.07 | 2.63 ± 0.11 | 3.12 ± 0.065
TFDSSWNWAKQSLLSLY [FAS2] | 1.47 ± 0.066 | 1.3 ± 0.058 | 2.08 ± 0.15 | 1.58 ± 0.073
TFSPSGKLGQIDYALTA [PRE8] | 2.61 ± 0.14 | 2.26 ± 0.092 | 2.67 ± 0.12 | 2.85 ± 0.064
TFSQESGLMVILYTSKI [RRI2] | 2.78 ± 0.076 | 3.05 ± 0.084 | 2.6 ± 0.085 | 2.94 ± 0.053
TFSSSISTYISTDELVG [POP8] | 3.02 ± 0.087 | 2.93 ± 0.057 | 2.9 ± 0.072 | 3.02 ± 0.069
TFVHVTDLSGKETIARV [RPS14A] | 2.89 ± 0.069 | 2.82 ± 0.073 | 2.84 ± 0.05 | 2.4 ± 0.055
TFVPTNSDKPRDVYVFD [DIS3] | 3 ± 0.062 | 2.93 ± 0.071 | 3.11 ± 0.064 | 3 ± 0.059
TGAGVDVNTNANANANA [SNF11] | 3.12 ± 0.074 | 3.31 ± 0.07 | 3.19 ± 0.045 | 3.34 ± 0.051
TGDVLLIQDLLHRLTPK [RPN1] | 3.12 ± 0.07 | 3.03 ± 0.061 | 3.01 ± 0.062 | 2.8 ± 0.059
TGESWVKLTYNSPSSAL [YDL088C/ASM4] | 2.31 ± 0.058 | 1.75 ± 0.055 | 2.08 ± 0.067 | 2.02 ± 0.04
TGHLFLKIIHTSVWAGQ [PRP8] | 1.31 ± 0.06 | 1.31 ± 0.056 | 1.19 ± 0.097 | 1.28 ± 0.051
